Test system: naïve central trigeminovascular neurons (HT, WDR) in the spinal trigeminal nucleus
Assay: Single-unit recording of spontaneous and evoked activity of naïve trigeminovascular neurons
Assay type: in vivo, rat
Settings: 30 mg/kg i.v.; for effect on spontaneous activity of naïve HT and WDR neurons: 1-4 hours post-treatment vs baseline
Excerpt: Experiments were approved by the Beth Israel Deaconess Medical Center and Harvard Medical School standing committees on animal care, and in accordance with the U.S. National Institutes of Health Guide for the Care and Use of Laboratory Animals. Male and female Sprague-Dawley rats (250-350 g) were anesthetized with urethane (0.9-1.2 g/kg i.p.). They were fitted with an intra-tracheal tube to allow artificial ventilation (0.1 L/min of O2), and an intra-femoral-vein cannula for later infusion of drugs. Rats were placed in a stereotaxic apparatus, and core temperature was kept at 37° C. using a heating blanket. End-tidal CO2 was continuously monitored and kept within physiological range (3.5-4.5 pCO2). Once stabilized, rats were paralyzed with rocuronium bromide (10 mg/ml, 1 ml/hr continuous intravenous infusion) and ventilated. For stimulation of the cranial dura later in the experiment, a 5×5-mm opening was carefully carved in the parietal and occipital bones in front and behind the lambda suture, directly above the left transverse sinus. The exposed dura was kept moist using a modified synthetic interstitial fluid (135 mM NaCl, 5 mM KCl, 1 mM MgCl2, 5 mM CaCl2), 10 mM glucose and 10 mM Hepes, pH 7.2). For single-unit recording in the spinal trigeminal nucleus, a segment of the spinal cord between the obex and C2 was uncovered from overlying tissues, stripped of the dura mater, and kept moist with mineral oil.
To record neuronal activity, a tungsten microelectrode (impedance 3-4 MΩ) was lowered repeatedly into the spinal trigeminal nucleus (STN) in search of central trigeminovascular neurons receiving convergent input from the dura and facial skin. Trigeminovascular neurons were first identified based on their responses to electrical stimulation of the dura. […] Dural receptive fields were mapped by indenting the dura (with the 4.19 g VFH monofilament) at points separated by 1 mm mediolaterally and rostrocaudally. Points at which dural indentation produced a response in ≥50% of the trials were considered inside the neurons receptive field. Cutaneous receptive fields were mapped by applying innocuous and noxious mechanical stimulation to all facial skin areas and the cornea. An area was considered outside the receptive field if no stimulus produced a response in ≥50% of the trials. Responses to mechanical stimulation of the skin were determined by applying brief (10 s) innocuous and noxious stimuli to the most sensitive portion of the cutaneous receptive field. Innocuous stimuli consisted of slowly passing a soft bristled brush across the cutaneous receptive field (one 5-s brush stroke from caudal to rostral and one 5-s brush stroke from rostral to caudal) and pressure applied with a loose arterial clip. Noxious stimuli consisted of pinch with a strong arterial clip (Palecek et al., 1992, J. Neurophysiol. 67:1562-1573; Dado et al., 1994, J. Neurophysiol. 71:981-1002; Burstein et al., 1998, J. Neurophysiol. 79:964-982). More intense or prolonged stimuli were not used to avoid inducing prolonged changes in spontaneous neuronal discharge or response properties. Responses to mechanical stimulation of the cornea consisted of gentle and slow brushing strokes with a thin paintbrush (about 10 hair-follicles). Two classes of neurons were thus identified: wide-dynamic-range (WDR) neurons (incrementally responsive to brush, pressure and pinch), and high-threshold (HT) neurons (unresponsive to brush). Real-time waveform discriminator was used to create and store a template for the action potential evoked in the neuron under study by electrical pulses on the dura; spikes of activity matching the template waveform were acquired and analyzed online and offline using Spike 2 software (CED, Cambridge, UK).
It was diluted in saline to a final dose of 30 mg/kg and administered intravenously (bolus injection, total volume 0.6-0.7 ml). […]

B1: G1: humanized monoclonal anti-CGRP antagonist antibody; heavy chain SEQ ID NO:11, light chain SEQ ID NO:12 (antibody)
heavy: EVQLVESGGGLVQPGGSLRLSCAASGFTFSNYWISWVRQAPGKGLEWVAEIRSESDASATHYAEAVKGRFTISRDNAKNSLYLQMNSLRAEDTAVYYCLAYFDYGLAIQNYWGQGTLVTVSSASTKGPSVFPLAPCSRSTSESTAALGCLVKDYFPEPVTVSWNSGALTSGVHTFPAVLQSSGLYSLSSVVTVPSSNFGTQTYTCNVDHKPSNTKVDKTVERKCCVECPPCPAPPVAGPSVFLFPPKPKDTLMISRTPEVTCVVVDVSHEDPEVQFNWYVDGVEVHNAKTKPREEQFNSTFRVVSVLTVVHQDWLNGKEYKCKVSNKGLPSSIEKTISKTKGQPREPQVYTLPPSREEMTKNQVSLTCLVKGFYPSDIAVEWESNGQPENNYKTTPPMLDSDGSFFLYSKLTVDKSRWQQGNVFSCSVMHEALHNHYTQKSLSLSPGK
light: EIVLTQSPATLSLSPGERATLSCKASKRVTTYVSWYQQKPGQAPRLLIYGASNRYLGIPARFSGSGSGTDFTLTISSLEPEDFAVYYCSQSYNYPYTFGQGTKLEIKRTVAAPSVFIFPPSDEQLKSGTASVVCLLNNFYPREAKVQWKVDNALQSGNSQESVTEQDSKDSTYSLSSTLTLSKADYEKHKVYACEVTHQGLSSPVTKSFNRGEC
effect on spontaneous activity of naïve HT and WDR neurons (female rats): did not reduce the spontaneous activity of HT or WDR neurons
decrease of firing of HT neurons in response to dural indentation (female rats, p=0.017): 61%
effect on sensitivity to mechanical stimulation of the dura (dural indentation), HT and WDR neurons (male and female rats): reduced the sensitivity to mechanical stimulation of the dura in the HT but not the WDR neurons
effect on responses to innocuous (brush, pressure) or noxious (pinch) mechanical stimulation of the skin or the cornea (male or female rats, HT or WDR neurons): did not alter the responses of HT or WDR neurons
effect on spontaneous activity of naïve HT and WDR neurons (male rats): reduced the spontaneous activity of the HT but not the WDR neurons
decrease of firing of HT neurons in response to dural indentation (male rats, p=0.047): 75%
decrease of spontaneous neuronal firing, HT neurons (male rats, within 3-4 hrs, p=0.040): 90%

Source: patent US20190071490A1, “Preventing Post-Ictal Headaches” (Beth Israel Deaconess Medical Center, Inc., priority 2017, published 2019)
